The term Kd denotes the concentration at which binding is half-saturated.

The assay has as its target T1, His-tagged recombinant PHB2 (UniProt Q99623 1-299, limits assumed).
T1 construct: also called prohibitin 2; REA; not shown: His tag
As to the kind of experiment: surface plasmon resonance (BiAcore) interaction analysis. In general terms: In SPR one partner is held on a chip, and binding of the other changes the refractive index at the surface.

T1 sequence (Q99623 whole entry): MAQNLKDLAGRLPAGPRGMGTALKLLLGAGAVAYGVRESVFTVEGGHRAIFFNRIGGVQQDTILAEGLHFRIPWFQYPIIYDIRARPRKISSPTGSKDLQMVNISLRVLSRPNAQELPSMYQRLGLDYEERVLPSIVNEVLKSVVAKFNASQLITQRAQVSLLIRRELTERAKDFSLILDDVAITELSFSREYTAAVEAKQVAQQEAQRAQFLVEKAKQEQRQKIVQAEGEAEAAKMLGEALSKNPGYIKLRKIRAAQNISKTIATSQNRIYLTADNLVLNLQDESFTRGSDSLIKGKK

B1: 11R-ERAP (11R-GGG-QMLSDLTLQLRQR) (peptide)
peptide: RRRRRRRRRRRGGGQMLSDLTLQLRQR
notes: Unstapled control peptide, synthesized as in Yoshimaru et al. 2013; also called dominant negative peptide
For the molecule B1, the Kd came out at 12.8 µM.

The values above are taken from patent US20190023739A1 (TOKUSHIMA UNIVERSITY, published 2019).
